From IntAct's records for PubMed 11313760

B1: Prelamin-A/C (Homo sapiens), P02545-1 (parent)
chain: METPSQRRATRSGAQASSTPLSPTRITRLQEKEDLQELNDRLAVYIDRVRSLETENAGLRLRITESEEVVSREVSGIKAAYEAELGDARKTLDSVAKERARLQLELSKVREEFKELKARNTKKEGDLIAAQARLKDLEALLNSKEAALSTALSEKRTLEGELHDLRGQVAKLEAALGEAKKQLQDEMLRRVDAENRLQTMKEELDFQKNIYSEELRETKRRHETRLVEIDNGKQREFESRLADALQELRAQHEDQVEQYKKELEKTYSAKLDNARQSAERNSNLVGAAHEELQQSRIRIDSLSAQLSQLQKQLAAKEAKLRDLEDSLARERDTSRRLLAEKEREMAEMRARMQQQLDEYQELLDIKLALDMEIHAYRKLLEGEEERLRLSPSPTSQRSRGRASSHSSQTQGGGSVTKKRKLESTESRSSFSQHARTSGRVAVEEVDEEGKFVRLRNKSNEDQSMGNWQIKRQNGDDPLLTYRFPPKFTLKAGQVVTIWAAGAGATHSPPTDLVWKAQNTWGCGNSLRTALINSTGEEVAMRKLVRSVTVVEDDEDEDGDDLLHHHHGSHCSSSGDPAEYNLRSRTVLCGTCGQPADKASASGSGAQVGGPISSGSSASSVTVTRSYRSVGGSGGGSFGDNLVTRSYLLGNSSPRTQSPQNCSIM
partner: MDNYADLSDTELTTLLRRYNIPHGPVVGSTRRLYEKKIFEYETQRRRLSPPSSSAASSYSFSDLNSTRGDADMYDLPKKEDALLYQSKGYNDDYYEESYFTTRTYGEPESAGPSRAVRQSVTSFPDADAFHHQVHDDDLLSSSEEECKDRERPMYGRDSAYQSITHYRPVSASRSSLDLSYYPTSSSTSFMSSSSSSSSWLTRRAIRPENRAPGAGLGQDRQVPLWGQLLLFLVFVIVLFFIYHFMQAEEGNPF

Variants of: B1
Settings: with emd_human EMD

effect of a mutation on the interaction	Variant
with no effect	R482Q
